{"source": "patent US6110457", "molecular_target": "T1, bovine fetuin (type IV; Sigma Chemical Company) (bovine) (UniProt P12763)", "T1 sequence": "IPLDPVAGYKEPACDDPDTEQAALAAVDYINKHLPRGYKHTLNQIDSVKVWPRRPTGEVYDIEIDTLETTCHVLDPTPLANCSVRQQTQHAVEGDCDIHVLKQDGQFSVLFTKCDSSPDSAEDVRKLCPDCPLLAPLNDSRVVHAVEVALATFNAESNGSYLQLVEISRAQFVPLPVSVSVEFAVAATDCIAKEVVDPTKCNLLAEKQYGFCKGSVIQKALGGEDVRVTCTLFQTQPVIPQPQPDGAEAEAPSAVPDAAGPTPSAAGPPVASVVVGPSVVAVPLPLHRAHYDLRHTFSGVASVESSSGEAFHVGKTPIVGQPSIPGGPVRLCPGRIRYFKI"}
{"binder": "hemagglutinin-neuraminidase protein, HN, of wild-type HPIV-3 (JS) (enzyme) MEYWKHTNHGKDAGNELETSMATHGNKLTNKIIYILWTIILVLLSIVFIIVLINSIKSEKAHESLLQDINNEFMEITEKIQMASDNTNDLIQSGVNTRLLTIQSHVQNYIPISLTQQMSDLRKFISEITIRNDNQEVLPQRITHDVGIKPLNPDDFWRCTSGLPSLMKTPKIRLMPGPGLLAMPTTVDGCVRTPSLVINDLIYAYTSNLITRGCQDIGKSYQVLQIGIITVNSDLVPDLNPRISHTFNINDNRKSCSLALLNTDVYQLCSTPKVDERSDYASSGIEDIVLDIVNYDGSISTTRFKNNNISFDQPYAALYPSVGPGIYYKGKIIFLGYGGLEHPINENVICNTTGCPGKTQRDCNQASHSPWFSDRRMVNSIIVVDKGLNSIPKLKVWTISMRQNYWGSEGRLLLLGNKIYIYTRSTSWHSKLQLGIIDITDYSDIRIKWTWHNVLSRPGNNECPWGHSCPDGCITGVYTDAYPLNPTGSIVSSVILDSQKSRVNPVITYSTATERVNELAILNRTLSAGYTTTSCITHYNKGYCFHIVEINHKSLNTFQPMLFKTEIPKSCS", "values": [{"measurement": "Neuraminidase activity with Fetuin (optical density values at 549nm) (optical density at 549nm)", "result": 1.11}]}
